According to patent US20080260858A1, “Universal Procoagulant” (The Board of Trustees of the University of Illnois, priority 2005, published 2008):

Tests used:
VIIa = molecular target: T1, VIIa (Homo sapiens, UniProt P08709); assay: Kd for VIIa binding to TF (X activation rate as readout); settings: purified proteins; membTF in PCPS liposomes; sTF-5AA-(His)6 plus NiPCPS liposomes; read-out: VIIa binding Kd
T1 construct: VIIa or factor VIIa means coagulation factor VIIa (active enzyme); purchased American Diagnostica
T1 sequence (P08709 61-212): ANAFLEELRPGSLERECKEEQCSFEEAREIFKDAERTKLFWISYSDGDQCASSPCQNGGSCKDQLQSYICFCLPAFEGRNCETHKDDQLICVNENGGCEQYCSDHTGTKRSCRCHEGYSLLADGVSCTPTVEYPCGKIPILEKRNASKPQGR
T1 sequence (P08709 213-466): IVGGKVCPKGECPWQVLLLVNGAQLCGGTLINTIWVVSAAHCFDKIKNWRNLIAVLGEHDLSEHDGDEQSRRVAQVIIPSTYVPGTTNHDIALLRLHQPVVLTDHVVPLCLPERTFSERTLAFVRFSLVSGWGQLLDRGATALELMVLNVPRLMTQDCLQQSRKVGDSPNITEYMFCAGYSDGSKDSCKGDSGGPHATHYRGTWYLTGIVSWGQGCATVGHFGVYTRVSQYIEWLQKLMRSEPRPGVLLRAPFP
Experimental: When VIIa binds to TF, its rate of X activation increases dramatically, so this can be used as a convenient readout for TF:VIIa complex formation. […] Therefore, when the isolated TF ectodomain was attached to the membrane surface via interaction with metal-chelating lipids, its VIIa binding ability was indistinguishable from membTF that spanned the lipid bilayer.
Measurement of the Kd for VIIa binding to TF—The binding affinity of VIIa for various forms of TF was measured using the TF-dependent increase in the rate of X activation as the readout for TF:VIIa complex formation. Activation of X by the TF:VIIa complex was measured by adapting the continuous chromogenic assay of Fiore et al.. Reaction mixtures containing Vila and either rTF/PCPS or sTF+SUVs were prepared in HBSAC. Reactions were initiated by adding a mixture of X and the chromogenic substrate, S-2222, in a flat bottom, 96-well plate. Change in A405 was monitored at ambient temperature in a VERSAmax microplate reader (Molecular Devices), sampling every 15 sec for 20 min. Initial rates of X activation were determined by fitting a second-order polynomial to the A405 data as described. The quadratic ligand binding equation was fit to the rate data as described to derive apparent Kd values for the binding of VIIa to TF. For experiments using relipidated rTF, typical reaction mixtures containing 0.25 μM VIIa and 20 nM X in HBSAC were incubated with increasing concentrations of rTF/PCPS.

X activation by VIIa = molecular target: T2, X activation by VIIa (Homo sapiens, UniProt P08709); assay: Factor X activation using liposomes; type: biochemical; settings: 500 pM VIIa, 4 pM TF, 50 μM total lipid; liposomes
T2 construct: VIIa or factor VIIa means coagulation factor VIIa (active enzyme); purchased American Diagnostica
Experimental: A stringent test of TF:VIIa function is its ability to support the activation of its natural protein substrate, X. This requires that TF be incorporated into a suitable phospholipid membrane (i.e., one containing negatively charged phospholipids). […] The ability of various forms of TF to support the activation of X was compared under equivalent concentrations of enzyme (500 pM VIIa), cofactor (4 pM TF) and liposomes (50 μM total lipid).
Factor X activation using liposomes. […] At varying times, 20 μl aliquots were removed into a 96-well plate containing 100 μl Stop Buffer 1 (40 mM Mes-NaOH pH 5.8, 12 mM EDTA, 50 mM NaCl, 0.25% Triton X-100, 0.1% NaN3, 0.012% Antifoam C) at 4° C. After warming the stopped reactions to room temperature, Xa was detected by adding 60 μl of 1.5 mM Spectrozyme Xa in HBSAC plus 0.6 M Tricine-NaOH, pH 8.4 and quantifying change in A405. Amounts of Xa generated were determined by comparison to a standard curve with purified Xa.

VII = molecular target: T3, VII (Homo sapiens, UniProt P08709); assay: Factor VII autoactivation; type: biochemical; settings: 15 nM VII and TF; 37° C.; liposomes
T3 construct: Purified plasma-derived VII, X and factor Xa (Xa) were from Enzyme Research Laboratories; purchased Enzyme Research Laboratories; host or cells: plasma
T3 sequence (P08709 61-466, one chain of several): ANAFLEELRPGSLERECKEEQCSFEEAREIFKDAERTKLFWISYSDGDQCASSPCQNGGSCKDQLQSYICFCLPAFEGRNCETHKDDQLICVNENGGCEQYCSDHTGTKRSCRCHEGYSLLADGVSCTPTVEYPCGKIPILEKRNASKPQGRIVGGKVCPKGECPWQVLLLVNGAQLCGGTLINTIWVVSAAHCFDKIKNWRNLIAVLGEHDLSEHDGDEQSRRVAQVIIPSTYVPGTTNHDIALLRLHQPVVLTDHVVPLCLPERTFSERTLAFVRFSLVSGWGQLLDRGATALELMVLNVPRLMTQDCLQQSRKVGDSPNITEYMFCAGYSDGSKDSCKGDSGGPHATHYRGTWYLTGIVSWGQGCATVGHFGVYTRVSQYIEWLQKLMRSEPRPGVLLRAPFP
Experimental: An additional function of TF is to promote the autoactivation of VII in a reaction that is dependent on TF surface density.
Factor VII autoactivation. Rates of VII autoactivation were measured essentially as described. Equimolar concentrations of VII and TF (15 nM each) were incubated in HBSAC at 37° C. […] A 20 μl aliquot of 5 mM Chromozym t-PA substrate was added and the change in A405 was monitored at ambient temperature. Two-dimensional second-order rate constants (k2D) were determined as described.

B1: membTF: recombinant membrane-bound tissue factor (protein, UniProt P13726 1-295, looked up)
chain: METPAWPRVPRPETAVARTLLLGWVFAQVAGASGTTNTVAAYNLTWKSTNFKTILEWEPKPVNQVYTVQISTKSGDWKSKCFYTTDTECDLTDEIVKDVKQTYLARVFSYPAGNVESTGSAGEPLYENSPEFTPYLETNLGQPTIQSFEQVGTKVNVTVEDERTLVRRNNTFLSLRDVFGKDLIYTLYYWKSSSSGKKTAKTNTNEFLIDVDKGENYCFSVQAVIPSRTVNRKSTDSPVECMGQEKGEFREIFYIIGAVVFVVIILVIILAISLHKCRKAGVGQSWKENSPLNVS
modifications: full-length
In the case of B1, the Kd (VIIa) is reported as 0.01 nM, the Km (X activation by VIIa) is reported as 0.059 ± 0.00088 µM and the X activation kcat (X activation by VIIa) is reported as 3.5 ± 0.38 s⁻¹. For the same molecule, the “VII autoactivation k2D” value (VII) was 3.4 (±0.15) × 10^7 m^2 mol^−1 s^−1.
